# “Also recorded” adds a separate entry of the source. Non-standard residues stand in square brackets, D forms with d. No end group written: not given here. Phe(4-NH2) = Nc1ccc(C[C@H](N)C(=O)O)cc1
# B1: Filgrastim: recombinant G-CSF (NEUPOGEN, Amgen, Inc.), comparator arm (protein, UniProt P09919 31-207, looked up)
# Granulocyte …: TPLGPASSLPQSFLLKCLEQVRKIQGDGAALQEKLVSECATYKLCHPEELVLLGHSLGIPWAPLSSCPSQALQLAGCLSQLHSGLFLYQGLLQALEGISPELGPTLDTLQLDVADFATTIWQQMEELGMAPALQPTQGAMPAFASAFQRRAGGVLVASHLQSFLEVSYRVLRHLAQP
# modifications: filgrastim, N-terminal methionine
# Assays:
# [1] = test system: female C57B1/6 mice treated with 200 mg/kg cytoxan; details: 200 mg/kg cyclophosphamide i.v.
# [2] = test system: mice injected with 150 mg/kg 5FU intravenously (WBC, platelets, hemoglobin); test: Effect of angiotensin fragments and ACE inhibitor on recovery after chemotherapy (Example 4); type: in vivo; details: for relative effect on increase in WBC (ranking of active agents): throughout the experimental period
# Method: The next study was designed to test the effect of angiotensin peptides and the angiotensin converting enzyme inhibitor, enalapril, on recovery of white blood cells, platelets and hemoglobin after chemotherapy, as well as on granulocyte-macrophage colony forming units (GM-CFU) in the blood and bone marrow.
# Female […] mice (4 per group), 6-8 weeks old, were injected with 150 mg/kg 5FU intravenously. Administration of the peptides (AII (100 μg/kg/day), AII(1-7) (10 or 100 μg/kg/day), AII(1-5) (10 or 100 μg/kg/day), and AII(1-6) (100 μg/kg/day)), by subcutaneous injection, or enalapril (30 mg/kg/day) by oral gavage, was begun 2 days after administration of the antineoplastic and continued daily until 28 days after 5FU administration, at which time the mice were euthanized for evaluation of white blood cell numbers, platelets, hemoglobin levels and the number of GM-CFU in the bone marrow and peripheral blood. On days 7, 10, 14 and 21 after 5FU administration, blood was taken under anesthesia from the retro-orbital sinus to assess white blood cell number, platelet number, and hemoglobin levels.
# The mice were bled from the retro-orbital sinus at days 7, 10, 14 and 21. The mice were anesthetized with Metofane (an inhaled anesthesia). Approximately 150-200 μl of blood were obtained from the retro-orbital sinus with a heparinzed capillary tube. The blood was then placed in a 1.7 ml microfuge tube containing 10 mM EDTA and held on ice until further processing.
# One hundred μl of blood was pipetted into a centrifuge tube, to which 900 μl of distilled water was added. The blood and water were mixed by inversion and allowed incubate at 4° C. for 20 minutes. The tube was then centrifuged at 12000 rpm to precipitate the cellular debri for 20 to 30 minutes at room temperature. Twenty μl of the supernatant from this centrifugation was then added into triplicate wells of a 96 well plate containing 180 μl of distilled water. The optical density, was then read using a microplate reader at […].
# Twenty μl of blood was mixed with 200 μl of red blood cell (RBC) lysing solution (0.83% NH4Cl, 10 mM EDTA, 0.5% NaHCO3). The mixture was then incubated for 10 minutes at 4° C. After this incubation, the supernatant was removed and the pellet was resuspended in 100 μl of PBS. To this, 100 μl of 0.04% trypan blue was added. This mixture was vortexed and the number of WBC (baseline was approximately 10^7 cells/ml) was evaluated by hematocytometer under light microscopy and the number: of platelets (baseline was approximately 2.5×10^8 platelets/ml) was evaluated by hematocytometer under phase contrast microscopy.
# The blood was harvested by cardiac puncture on day 10 to assess mobilization of myeloid progenitors into the peripheral blood. The femurs and tibia were also collected and the bone marrow was harvested by flushing with PBS containing 2% fetal calf serum. After collection of the blood and bone marrow, the red blood cells were lysed with a hypotonic solution (described above), mixed with 0.04% trypan blue, and the number of nucleated cells assessed by hematocytometer under light microscopy. Aliquots of cells were then resuspended at 1×10^5 cells/ml (bone marrow) or 1×10^6 cells/ml Flood). […]
# [3] = test system: animals given intravenous 5FU (white blood cells, CFU-GM); test: Effect of AII on white blood cell mobilization and recovery after 5-fluorouracil (Example 1); type: in vivo, mice; details: AII 10 or 100 μg/kg/day s.c., started day -2, 0 or 2 relative to i.v. 5FU; day 7 or 14; all tissues tested (blood, spleen, thymus, bone marrow)
# Method: This study was designed to test the effect of AII on the recovery of white blood cells in lymphoid organs and on the level of granulocyte macrophage precursors (CFU-GM) in the blood (ie: mobilization), spleen (mobilization), and bone marrow (recovery) after intravenous administration of 5-fluorouracil (5FU). […] The number of white blood cells in each of the lymphoid organs, or the number of CFU-GM present in all the organs except the thymus were then assessed.
# [4] = test system: AT2 receptor; details: cited from earlier work
# [5] = Tests of AII fragments for effectiveness (method not described); details: test not specified
# [6] = test system: patients with newly diagnosed breast cancer receiving doxorubicin and cyclophosphamide
# [7] = filgrastim 5.0 μg/kg/day comparator arm
molecule,measurement,setting,value
"O=P1(N(CCCl)CCCl)NCCCO1 (stereo not shown) [cyclophosphamide, reference compound]",number of myeloid progenitors (GM-CFU) in the bone marrow after cyclophosphamide,[1],significantly reduced
"CCOC(=O)[C@H](CCc1ccccc1)N[C@@H](C)C(=O)N1CCC[C@H]1C(=O)O [enalapril, reference compound]",relative effect on increase in WBC (ranking of active agents),[2],least effective
Asp-Arg-Val-Tyr-Ile (DRVYI) [AII(1-5)],platelets after administration,[2]; after i.v. 5FU,increase in platelets
Asp-Arg-Val-Tyr-Ile-His-Pro-Phe (DRVYIHPF) [AII],white blood cell mobilization and/or recovery,[3],significantly enhanced
same,relative effect on increase in WBC (ranking of active agents),[2],most profound effect
Asp-Arg-Val-Tyr-Ile-Xaa-Pro-Phe (DRVYI[Phe(4-NH2)]PF) [(p-NH2-Phe)6-AII],affinity for AT2 relative to other receptor subtype,[4],100 times
same,binding characteristics in the experimental models tested,[4],comparable’ to AT2 antagonists
DRVYIH [AII(1-6)],relative effect on increase in WBC (ranking of active agents),[2],least effective
His-Pro-Phe (HPF) [AII(6-8)],effectiveness in tests,[5],not to be effective
Tyr-Ile-His-Pro-Phe (YIHPF) [AII(4-8)],effectiveness in tests,[5],not to be effective; also recorded: ineffective
B1,Alopecia (frequency by treatment group),[6]; chemotherapy patients,40%
same,Anemia (frequency by treatment group),[6]; chemotherapy patients,60%
same,Fatigue (frequency by treatment group),[6]; chemotherapy patients,80%
same,Headache (frequency by treatment group),[6]; chemotherapy patients,60%
same,Myalgia/Muscle-skeletal pain (frequency by treatment group),[6]; chemotherapy patients,60%
same,Nausea (frequency by treatment group),[6]; chemotherapy patients,100%
same,Stomatitis (frequency by treatment group),[6]; chemotherapy patients,60%
same,Vomiting (frequency by treatment group),[6]; chemotherapy patients,60%
same,Toxicity: ANC < 1000/μl (frequency),[6]; [7],40%
same,Toxicity: Hgb < 10 gm/dl (frequency),[6]; [7],60%
same,Toxicity: Lymph < 500/μl (frequency),[6]; [7],80%
same,Toxicity: Platelet < 80 K/μl (frequency),[6]; [7],60%
same,Toxicity: WBC < 2000/μl (frequency),[6]; [7],60%
same,frequency of grade 3-4 neutropenia,[6]; filgrastim compared to AII(1-7),lower frequency
same,change in platelet number,"[6]; patients that received filgrastim, more pronounced in subsequent cycles",time dependent decrease in platelet number

# — patent US7338938B2, “Methods for treating a patient undergoing chemotherapy” (University of Southern California, priority 1999, dated 2008)
